Results published in PMC1334386 (PLoS Biology, 2006).
Entries after “also recorded” stand apart in the source; their conditions may differ.

Tests used:
[1] = molecular target: T1, HAUSP TRAF-like domain (residues 53–206) (Homo sapiens, UniProt Q93009); assay: gel filtration binding assay of MDM2 fragments with HAUSP TRAF-like domain; settings: Superdex-200, HAUSP residues 53–206, 25 mM Tris pH 8.0, 100 mM NaCl, 2 mM DTT, 4 °C
T1 construct: GST (N); made in house; host or cells: Escherichia coli BL21(DE3), vector pGEX-2T
T1 sequence (Q93009 53-206): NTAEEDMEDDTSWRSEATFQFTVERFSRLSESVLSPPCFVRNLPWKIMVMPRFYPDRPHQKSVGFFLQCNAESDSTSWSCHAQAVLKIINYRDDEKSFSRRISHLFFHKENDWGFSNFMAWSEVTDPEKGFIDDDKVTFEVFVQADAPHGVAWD
Procedure: (§1) Size-exclusion chromatography (gel filtration), using a Superdex-200 column (10/30, Amersham Pharmacia Biotech, Piscataway, New Jersey, United States), was employed to carry out all the in vitro binding assays. Proteins subjected to binding tests were incubated at 4 °C for at least 45 min to allow equilibrium to be reached. The flow rate was 0.5 ml/min, and the buffer contained 25 mM Tris (pH 8.0), 100 mM NaCl, and 2 mM DTT. All fractions were collected at 0.5 ml each. Aliquots of relevant fractions were mixed with SDS sample buffer and subjected to SDS-polyacrylamide gel electrophoresis. The proteins were visualized by Coomassie Blue staining. The column was calibrated with molecular-mass standards.

[2] = tested on: HAUSP TRAF-like domain (residues 1–206); assay: in vitro competition assay using gel filtration chromatography, MDM2 versus p53; format: binding; settings: 10-fold molar equivalence of p53 (351–382) preincubated with HAUSP 5 min at 4 °C, then one molar equivalence of MDM2 (208–289) 45 min at 4 °C, SDS-PAGE/Coomassie
[3] = tested on: HAUSP TRAF-like domain (residues 1–206); assay: gel filtration binding assay with HAUSP (residues 1–206); settings: Superdex-200, 25 mM Tris pH 8.0, 100 mM NaCl, 2 mM DTT, 4 °C, SDS-PAGE/Coomassie, protein alone, no competitor
Procedure: as §1

| Molecule | complex formation with HAUSP TRAF-like domain [1] | complex formation with HAUSP in competition [2] | complex formation with HAUSP (residues 1–206) [3] |
| --- | --- | --- | --- |
| MDM2 fragment residues 170–232: MDM2 fragment encompassing residues 170–232 (protein) ENSDELSGERQRKRHKSDSISLSFDESLALCVIREICCERSSSSESTGTPSNPDLDAGVSEHS | formed a stable complex | – | – |
| MDM2 (residues 208–289): MDM2 fragment, residues 208–289 (protein) ERSSSSESTGTPSNPDLDAGVSEHSGDWLDQDSVSDQFSVEFEVESLDSEDYSLSEEGQELSDEDDEVYQVTVYQAGESDTD | – | formed a stable complex only with MDM2; also recorded: formed a stable complex with HAUSP | interacts |
| MDM2 fragment residues 223–289: MDM2 fragment encompassing residues 223–289 (protein) DLDAGVSEHSGDWLDQDSVSDQFSVEFEVESLDSEDYSLSEEGQELSDEDDEVYQVTVYQAGESDTD | formed a stable complex | – | – |
